Measurements: patent publication US10874712B2, “Methods, compounds and compositions for modulating blood brain barrier integrity and re-myelination” (University Health Network, priority 2015, dated 2020)
Entries after “also recorded” stand apart in the source; their conditions may differ.

Tested on: blood brain barrier of mice
Experiment: BBB permeability, Texas red dye leakage by widefield imaging
Format: in vivo, mouse
Conditions: mice injected with RGMa plus the agent
Description: Mice were treated with RGMa (70 ug), RGMa (70 ug)+RGMc (70 ug), or Vehicle (1% BSA) 18 h prior to widefield imaging (100-300 ms exposure) prior to and following intravenous injection of Texas Red dye (0.5 mg) over time. […] (B) Quantification of the leakage of Texas Red dye (measured as the number of leakage sites/mm^2).
BBB integrity was assessed in mice treated with PBS (Vehicle), RGMa, RGMc, RGMa+ immunoglobulin domain of Neogenin (4Ig). Widefield imaging was then carried out under a Olympus microscope (BX6 1WI) prior to and following the injection of Texas red dye (100 uL, I.V., 5 mg/ml) using 100-300 ms exposure. Recording was performed from 0 min to 35 min following injection. Texas dye leakage was also assessed in RGMc knockout (KO) and wild type (WT) mice. The leakage of Texas-red dye was quantified by a blind experimenter measuring the number of leakage sites/mm^2. (A) Representative images of Texas red dye: PBS (Vehicle), RGMa, RGMa+RGMc and RGMa+4Ig (immunoglobulin domain of Neogenin). Quantification of the leakage of Texas Red dye in animals treated with (B) PBS (Vehicle), RGMa or RGMa+RGMc or in RGMc KO and WT mice or (C) PBS (Vehicle), RGMa, RGMa+RGMc or RGMa+4Ig.
Mice injected with BSA, RGMc, RGMa, or RGMa+RGMc. […] Leakage of Texas red dye was quantified by a blind experimenter measuring the number of leakage sites/mm^2. […]

B1: sRGMc: truncated form of RGMc with the GPI anchor sequence removed, released as a soluble protein (SEQ ID NOs: 1 and 3) (protein, listed as Homo sapiens)
chain: CKILRCNAEYVSSTLSLRGGGSSGALRGGGGGGRGGGVGSGGLCRALRSYALCTRRTARTCRGDLAFHSAVHGIEDLMIQHNCSRQGPTAPPPPRGPALPGAGSGLPAPDPCDYEGRFSRLHGRPPGFLHCASFGDPHVRSFHHHFHTCRVQGAWPLLDNDFLFVQATSSPMALGANATATRKLTIIFKNMQECIDQKVYQAEVDNLPVAFEDGSINGGDRPGGSSLSIQTANPGNHVEIQAAYIGTTIIIRQTAGQLSFSIKVAEDVAMAFSAEQDLQLCVGGCPPSQRLSRSERNRRGAITIDTARRLCKEGLPVEDAYFHSCVFDVLISGDPNFTVAAQAALEDARAFLPDLEKLH
  RGMa-induced disruption of BBB integrity (Texas Red dye leakage): suppressed; also recorded: ameliorated
